Experiments:
FOLR1 [1] = target: T1, FOLR1 (human, UniProt P15328); test: BLI, 25C
FOLR1 [2] = target: T1, FOLR1; test: FACS, FOLR+ KB cells

T1 sequence (P15328 25-234): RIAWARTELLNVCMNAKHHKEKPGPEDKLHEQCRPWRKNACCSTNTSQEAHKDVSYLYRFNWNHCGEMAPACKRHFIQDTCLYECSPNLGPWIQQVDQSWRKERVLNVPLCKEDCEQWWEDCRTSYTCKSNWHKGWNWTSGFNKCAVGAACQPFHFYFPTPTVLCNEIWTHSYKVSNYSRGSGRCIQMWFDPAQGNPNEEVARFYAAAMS

B1: b-SpyTag003(D2)-K(folate) (peptide)
chain: RGVPHIVMVDAYKRYKG
modifications: biotinylated; two D-arginine substitutions; additional C-terminal Lys conjugated to folate (folate is the FOLR1-binding moiety)
In the case of B1, the Kd (FOLR1 [1]) is reported as 0.345 nM and the Kd (FOLR1 [2]) is reported as 16.1 nM.
